The source of these data is US20230357354A1, “CD38-BINDING CD31 PEPTIDES AND USES THEREOF” (ENCEFA, priority 2020, published 2023).

The test deals with recombinant His-tagged CD38 (Homo sapiens, UniProt P28907). In words: Pepscan-based ELISA of His-tagged CD38 on CD31 peptide arrays. The format is binding. The conditions noted are these: for Value (binding intensity of His-tagged CD38), LOOP15 conformational peptide array: mimic type LOOP15 (single loop, mP2 CLIPS); for Value (binding intensity of His-tagged CD38), LOOP15 conformational peptide array / Value (binding intensity of His-tagged CD38), BET conformational peptide array / Value (binding intensity of His-tagged CD38), LOOP7 conformational peptide array: sample with the highest signal; for Value (binding intensity of His-tagged CD38), BET conformational peptide array: mimic type BET (β-turn mimic, mP2 CLIPS); for Value (binding intensity of His-tagged CD38), LIN15 linear peptide array: mimic type LIN15, sample with the highest signal (His-tagged CD38 9 or 20 µg/mL); for Value (binding intensity of His-tagged CD38), LOOP7 conformational peptide array: mimic type LOOP7 (single loop, mP2 CLIPS). The source says:
Different sets of sCD31 peptides were synthesized according to the following designs. Note that actual order of peptides on mini-cards in some was randomized. • Set #1 • Mimic type: linear • Label: LIN15 • Linear peptides of 15 consecutive amino acid residues in length, derived from the target sequence of sCD31 with an offset of […]. • Set #2 • Mimic type: single loop (mP2 CLIPS) • Label: LOOP7 • Constrained peptides of 9 amino acid residues in length. On positions 2-8 are incorporated 7 consecutive amino acid residues derived from the target sequence of sCD31 with an offset of 1.3 residues. Cys residues were inserted on positions 1 and 9 and joined by mP2 CLIPS in order to create a loop mimic. Native Cys residues, if present, were replaced by Ser residues. • Set #3 • Mimic type: single loop, (mP2 CLIPS) • Label: LOOP15 • Constrained peptides of 17 amino acid residues in length. On positions 2-16 are incorporated 15 consecutive amino acid residues derived from the target sequence of sCD31 with an offset of […]. Cys residues were inserted on positions 1 and 17 and joined by mP2 CLIPS in order to create a loop mimic. Native Cys residues, if present, were replaced by Ser residues. • Set #4 • Mimic type: β-turn peptide mimics (mP2 CLIPS) • Label: BET • β-turn peptide mimics of 22 amino acid residues in length. On positions 2-21 are incorporated 20 consecutive amino acid residues derived from the target sequence of sCD31 with an offset of 1.3 residues. Residues on positions 11 and 12 are replaced by a Pro-Gly motif in order to induce the β-turn formation. Cys residues were inserted on positions 1 and 22 and joined by mP2 CLIPS in order to stabilize the mimic. Native Cys residues, if present, were replaced by Ser residues.
To reconstruct epitopes of sCD31, a library of peptide-based peptide mimics was synthesized using Fmoc-based solid-phase peptide synthesis. An amino functionalized polypropylene support was obtained by grafting with a hydrophilic polymer formulation, followed by reaction with t-butyloxycarbonyl-hexamethylenediamine (BocHMDA) using dicyclohexylcarbodiimide (DCC) with N-hydroxybenzotriazole (HOBt) and subsequent cleavage of the Boc-groups using trifluoroacetic acid (TFA).
Standard Fmoc-peptide synthesis was used to synthesize peptides on the amino-functionalized solid support by custom modified JANUS liquid handling stations (Perkin Elmer).
Synthesis of structural mimics was done using CLIPS technology. CLIPS technology allows to structure peptides into single loops, double loops, triple loops, sheet-like folds, helix-like folds, and combinations thereof. CLIPS templates are coupled to cysteine residues. The side-chains of multiple cysteines in the peptides are coupled to one or two CLIPS templates. For example, a 0.5 mM solution of the P2 CLIPS (2,6-bis(bromomethyl)pyridine) is dissolved in ammonium bicarbonate (20 mM, pH 7.8)/acetonitrile (1:3, v/v). This solution is added onto the peptide arrays. The CLIPS template binds to side-chains of two cysteines as present in the solid-phase bound peptides of the peptide-arrays (455 wells plate with 3-µL wells). The peptide arrays are gently shaken in the solution for 30 to 60 minutes while completely covered in solution.
Finally, the peptide arrays are washed extensively with excess of H2O and sonicated in disrupt-buffer containing 1% SDS / 0.1 % 2,2′-(ethylenedioxy)diethanethiol in PBS (pH 7.2) at 70° C. for 30 minutes, followed by sonication in H2O for another 45 minutes.
The binding of the sample (recombinant His-tagged CD38; 9 µg/mL and 20 µg/mL) to each of the synthesized peptides was tested in a pepscan-based ELISA. The peptide arrays were incubated with primary sample solution (overnight at 4° C.). […]
In general terms: In an ELISA, binding on a coated surface is turned into a signal by an enzyme label.

For “9 (CRDQNFVILEFPVEEQC; Human sCD31 peptide) [compound 9]”, the “Value (binding intensity of His-tagged CD38), LOOP15 conformational peptide array” value (“Value … LOOP15 conformational peptide array” below) came to 1110 mAU. Consider “269 (CKPQHQMLFYPGDVLFYNISSC) [compound 269]”, for which the “Value (binding intensity of His-tagged CD38), BET conformational peptide array” value (“Value … BET conformational peptide array” below) amounted to 641 mAU. In the case of 120 (NSNDPAVFKDNPTED) [compound 120], the “Value (binding intensity of His-tagged CD38), LIN15 linear peptide array” value (shortened to “Value … LIN15 linear peptide array”) came out at 421 mAU. “282 (CVVSEMLSQPPGSYDAQFEVIC) [compound 282]”: the “Value … BET conformational peptide array” value came out at 635 mAU.

Take “284 (CEVLRVKVIAPGDEVQISILSC) [compound 284]”: the “Value … BET conformational peptide array” value is 447 mAU. Turning to 167 (CEDVEYQSC) [compound 167], the “Value (binding intensity of His-tagged CD38), LOOP7 conformational peptide array” value (“Value … LOOP7 conformational peptide array” for short) is listed as 804 mAU.

Regarding 291 (CNFVILEFC) [compound 291], the “Value … LOOP7 conformational peptide array” value was determined as 1186 mAU. For 252 (CQNFVILEFPVEEQDRC) [compound 252], the “Value … LOOP15 conformational peptide array” value is recorded as 729 mAU. As to 177 (CSFADVSTC) [compound 177], the “Value … LOOP7 conformational peptide array” value amounted to 390 mAU. Take 238 (CNISSMKSTESYFIPEC) [compound 238]: the “Value … LOOP15 conformational peptide array” value is listed as 478 mAU. The same measure, in the same setting: in the case of 235 (CVLFYNISSMKSTESYC) [compound 235] it was 371 mAU. For the substance “272 (CDDVLFYNISPGKSTESYFIPC) [compound 272]”, the “Value … BET conformational peptide array” value stood at 524 mAU. With 223 (CQEGEYYSC) [compound 223], the “Value … LOOP7 conformational peptide array” value was 619 mAU. Consider “265 (CTTSHVKPQHPGLFYKDDVLFC) [compound 265]”, for which the “Value … BET conformational peptide array” value is given as 679 mAU.

Take 255 (CSTIQVTHLAQEFPEIC) [compound 255]: the “Value … LOOP15 conformational peptide array” value came to 320 mAU.

For the substance 228 (CVKPQHQMLFYKDDVLC) [compound 228], the “Value … LOOP15 conformational peptide array” value was 411 mAU. As for 257 (CIQVTHLAQEFPEIIIC) [compound 257], the “Value … LOOP15 conformational peptide array” value was 797 mAU. For the substance 122 (DPAVFKDNPTEDVEY) [compound 122], the “Value … LIN15 linear peptide array” value is 402 mAU. As to 217 (CVQISILSC) [compound 217], the “Value … LOOP7 conformational peptide array” value was determined as 416 mAU.

Turning to 218 (CESGEDIVC) [compound 218], the “Value … LOOP7 conformational peptide array” value is 420 mAU.

For the substance 212 (CNPTEDVEC) [compound 212], the “Value … LOOP7 conformational peptide array” value is 402 mAU. On the same count and under the same terms, as for 183 (CVLFYNISC) [compound 183], the figure is 502 mAU.

As for 30 (KPQHQMLFYKDDVLF) [compound 30], the “Value … LIN15 linear peptide array” value is recorded as 355 mAU.

In the case of 187 (CYFIPEVRC) [compound 187], the “Value … LOOP7 conformational peptide array” value is 523 mAU. For 206 (CVNITELFC) [compound 206], the “Value … LOOP7 conformational peptide array” value is 625 mAU. As to 33 (HQMLFYKDDVLFYNI) [compound 33], the “Value … LIN15 linear peptide array” value was found to be 441 mAU. In the case of 185 (CTESYFIPC) [compound 185], the “Value … LOOP7 conformational peptide array” value is listed as 549 mAU. As to 124 (VFKDNPTEDVEYQCV) [compound 124], the “Value … LIN15 linear peptide array” value is reported as 303 mAU. Consider 263 (CSKVSSIVVNITELFSC) [compound 263], for which the “Value … LOOP15 conformational peptide array” value worked out at 593 mAU. Take 224 (CEGEYYSTC) [compound 224]: the “Value … LOOP7 conformational peptide array” value came to 650 mAU. As for “14 (CPPANFTIQKPGTIVSQTQDFC; Human sCD31 peptide) [compound 14]”, the “Value … BET conformational peptide array” value was found to be 739 mAU. As to 215 (CDEVQISIC) [compound 215], the “Value … LOOP7 conformational peptide array” value is 378 mAU. With 245 (CESYFIPEVRIYDSGTC) [compound 245], the “Value … LOOP15 conformational peptide array” value is 373 mAU. Still for that read-out and setting: as for 253 (CNFVILEFPVEEQDRVC) [compound 253], the figure is 524 mAU. On to 78 (RDQNFVILEFPVEEQ) [compound 78], for which the “Value … LIN15 linear peptide array” value amounted to 1021 mAU. Regarding 199 (CLAQEFPEC) [compound 199], the “Value … LOOP7 conformational peptide array” value is on record as 412 mAU. Still for that read-out and setting: as for 186 (CSYFIPEVC) [compound 186], the figure is 400 mAU. Regarding 123 (PAVFKDNPTEDVEYQ) [compound 123], the “Value … LIN15 linear peptide array” value stood at 333 mAU. Still for that read-out and setting: as for 172 (EQEGEYYCTAFNRAN) [compound 172], the figure is 340 mAU. On the same count and under the same terms, in the case of 121 (SNDPAVFKDNPTEDV) [compound 121] it was 410 mAU. Regarding 193 (CAEYQVLVC) [compound 193], the “Value … LOOP7 conformational peptide array” value is on record as 508 mAU. Same read-out and setting: in the case of 219 (CSGEDIVLC) [compound 219] it was 573 mAU. With “274 (CKMVKLKREKPGRDQNFVILEC) [compound 274]”, the “Value … BET conformational peptide array” value came to 897 mAU. As for 244 (CTESYFIPEVRIYDSGC) [compound 244], the “Value … LOOP15 conformational peptide array” value came out at 465 mAU. As for 222 (CKEQEGEYC) [compound 222], the “Value … LOOP7 conformational peptide array” value is 385 mAU. In the case of “276 (CLKREKNSRDPGFVILEFPVEC) [compound 276]”, the “Value … BET conformational peptide array” value was 817 mAU.

With 258 (CQVTHLAQEFPEIIIQC) [compound 258], the “Value … LOOP15 conformational peptide array” value is 617 mAU.

As for 32 (QHQMLFYKDDVLFYN) [compound 32], the “Value … LIN15 linear peptide array” value turned out to be 460 mAU. As to 216 (CEVQISILC) [compound 216], the “Value … LOOP7 conformational peptide array” value came to 529 mAU. As for 220 (CGEDIVLQC) [compound 220], the “Value … LOOP7 conformational peptide array” value is given as 442 mAU. 243 (CSTESYFIPEVRIYDSC) [compound 243]: the “Value … LOOP15 conformational peptide array” value was found to be 660 mAU.

171 (SKEQEGEYYCTAFNR) [compound 171]: the “Value … LIN15 linear peptide array” value amounted to 454 mAU. Consider “13 (CVESSRISKVPGIVVNITELFC; Human sCD31 peptide) [compound 13]”, for which the “Value … BET conformational peptide array” value is 943 mAU. On to 74 (KREKNSRDQNFVILE) [compound 74], for which the “Value … LIN15 linear peptide array” value was found to be 440 mAU.

Regarding “270 (CYKDDVLFYNPGSMKSTESYFC) [compound 270]”, the “Value … BET conformational peptide array” value is 378 mAU.

Consider 75 (REKNSRDQNFVILEF) [compound 75], for which the “Value … LIN15 linear peptide array” value is given as 453 mAU. Consider 195 (CDQNFVILC) [compound 195], for which the “Value … LOOP7 conformational peptide array” value worked out at 628 mAU. 260 (CSSRISKVSSIVVNITC) [compound 260]: the “Value … LOOP15 conformational peptide array” value stood at 287 mAU. Turning to 38 (LFYKDDVLFYNISSM) [compound 38], the “Value … LIN15 linear peptide array” value was found to be 383 mAU.
